Target: T1, CD30 on Hodgkin-derived cell lines (L540, L428) (human, UniProt P28908 19-595)
T1 sequence (looked up): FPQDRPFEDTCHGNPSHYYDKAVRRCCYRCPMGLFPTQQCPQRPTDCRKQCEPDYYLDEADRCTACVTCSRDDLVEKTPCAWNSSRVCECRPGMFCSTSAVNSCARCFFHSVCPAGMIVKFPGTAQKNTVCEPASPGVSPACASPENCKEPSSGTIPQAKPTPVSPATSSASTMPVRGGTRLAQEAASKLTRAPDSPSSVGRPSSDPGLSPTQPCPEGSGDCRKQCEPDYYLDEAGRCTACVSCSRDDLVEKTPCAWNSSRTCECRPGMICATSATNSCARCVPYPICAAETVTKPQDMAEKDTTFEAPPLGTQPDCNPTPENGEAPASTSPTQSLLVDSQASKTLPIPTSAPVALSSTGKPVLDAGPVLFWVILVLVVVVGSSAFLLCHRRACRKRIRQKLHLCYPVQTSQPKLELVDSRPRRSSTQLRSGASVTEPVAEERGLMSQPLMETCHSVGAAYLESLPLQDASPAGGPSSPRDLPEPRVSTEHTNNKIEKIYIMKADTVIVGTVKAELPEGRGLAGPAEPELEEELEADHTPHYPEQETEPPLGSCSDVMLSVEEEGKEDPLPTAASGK
Test: cell-based or functional assay

NF-κB-responsive luciferase reporter gene in transfected L428 cells: ~2 fold
B1: fully human anti-CD30 monoclonal antibody 5F11 (antibody, V domains shown)
VH: QVQLQQWGAGLLKPSETLSLTCAVYGGSFSAYYWSWIRQPPGKGLEWIGDINHGGGTNYNPSLKSRVTISVDTSKNQFSLKLNSVTAADTAVYYCASLTAYWGQGSLVTVSS
VL: DIQMTQSPTSLSASVGDRVTITCRASQGISSWLTWYQQKPEKAPKSLIYAASSLQSGVPSRFSGSGSGTDFTLTISSLQPEDFATYYCQQYDSYPITFGQGTRLEIK

— US20060177442A1 (Bristol-Myers Squibb, published 2006)
